{"source": "the supplement of paper PMC9112550", "about": "“Optimization of the antimicrobial peptide Bac7 by deep mutational scanning” (BMC Biology, 2022);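 further: peptides expressed intracellularly from a pBAD plasmid library in pooled LB shake-flask culture, induced with 0.3% L-arabinose, DNA abundance read by NGS, three biological replicates, DESeq2 with apeglm shrinkage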", "data": [{"test_system": "Escherichia coli TOP10", "experiment": "shrunken log2 fold change of peptide-encoding DNA abundance (4.5 h post-induction vs induction); higher = less antimicrobial activity (less host growth inhibition)", "conditions": "time post-induction: 4.5 h; library: site-saturation at positions 5, 18, 19, 20", "values": [{"sequence": "RRIRIRPPRLPRPRPRPQWTPRP", "shrunken log2 fold change": -0.0472}, {"sequence": "RRIRIRPPRLPRPRPRPQYCPRP", "shrunken log2 fold change": -0.15}, {"sequence": "RRIRIRPPRLPRPRPRPQYIPRP", "shrunken log2 fold change": -0.181}, {"sequence": "RRIRIRPPRLPRPRPRPQYQPRP", "shrunken log2 fold change": -0.769}, {"sequence": "RRIRIRPPRLPRPRPRPQYRPRP", "shrunken log2 fold change": -0.0599}, {"sequence": "RRIRIRPPRLPRPRPRPRAKPRP", "shrunken log2 fold change": 0.139}, {"sequence": "RRIRIRPPRLPRPRPRPRANPRP", "shrunken log2 fold change": 0.0386}, {"sequence": "RRIRIRPPRLPRPRPRPRCWPRP", "shrunken log2 fold change": 0.138}, {"sequence": "RRIRIRPPRLPRPRPRPREVPRP", "shrunken log2 fold change": -0.118}, {"sequence": "RRIRIRPPRLPRPRPRPRGAPRP", "shrunken log2 fold change": 0.175}, {"sequence": "RRIRIRPPRLPRPRPRPRGDPRP", "shrunken log2 fold change": 0.389}, {"sequence": "RRIRIRPPRLPRPRPRPRGLPRP", "shrunken log2 fold change": -0.272}, {"sequence": "RRIRIRPPRLPRPRPRPRKCPRP", "shrunken log2 fold change": -0.599}, {"sequence": "RRIRIRPPRLPRPRPRPRKNPRP", "shrunken log2 fold change": -0.133}, {"sequence": "RRIRIRPPRLPRPRPRPRLAPRP", "shrunken log2 fold change": 0.237}, {"sequence": "RRIRIRPPRLPRPRPRPRLCPRP", "shrunken log2 fold change": 0.0776}, {"sequence": "RRIRIRPPRLPRPRPRPRLIPRP", "shrunken log2 fold change": -0.199}, {"sequence": "RRIRIRPPRLPRPRPRPRMAPRP", "shrunken log2 fold change": 0.0331}, {"sequence": "RRIRIRPPRLPRPRPRPRMEPRP", "shrunken log2 fold change": -0.00396}, {"sequence": "RRIRIRPPRLPRPRPRPRMQPRP", "shrunken log2 fold change": -0.199}, {"sequence": "RRIRIRPPRLPRPRPRPRNLPRP", "shrunken log2 fold change": -0.306}, {"sequence": "RRIRIRPPRLPRPRPRPRNQPRP", "shrunken log2 fold change": -0.542}, {"sequence": "RRIRIRPPRLPRPRPRPRPPPRP", "shrunken log2 fold change": 0.635}, {"sequence": "RRIRIRPPRLPRPRPRPRQFPRP", "shrunken log2 fold change": -0.112}, {"sequence": "RRIRIRPPRLPRPRPRPRRMPRP", "shrunken log2 fold change": -0.12}, {"sequence": "RRIRIRPPRLPRPRPRPRSHPRP", "shrunken log2 fold change": -0.287}, {"sequence": "RRIRIRPPRLPRPRPRPRSPPRP", "shrunken log2 fold change": 0.0527}, {"sequence": "RRIRIRPPRLPRPRPRPRVAPRP", "shrunken log2 fold change": 0.386}, {"sequence": "RRIRIRPPRLPRPRPRPRVQPRP", "shrunken log2 fold change": 0.0871}, {"sequence": "RRIRIRPPRLPRPRPRPSACPRP", "shrunken log2 fold change": -0.561}, {"sequence": "RRIRIRPPRLPRPRPRPSDDPRP", "shrunken log2 fold change": -0.191}, {"sequence": "RRIRIRPPRLPRPRPRPSEHPRP", "shrunken log2 fold change": -0.36}, {"sequence": "RRIRIRPPRLPRPRPRPSEQPRP", "shrunken log2 fold change": -0.0663}, {"sequence": "RRIRIRPPRLPRPRPRPSFIPRP", "shrunken log2 fold change": -1.24}, {"sequence": "RRIRIRPPRLPRPRPRPSFRPRP", "shrunken log2 fold change": -0.671}, {"sequence": "RRIRIRPPRLPRPRPRPSGVPRP", "shrunken log2 fold change": -0.666}, {"sequence": "RRIRIRPPRLPRPRPRPSILPRP", "shrunken log2 fold change": -0.878}, {"sequence": "RRIRIRPPRLPRPRPRPSIQPRP", "shrunken log2 fold change": -0.252}, {"sequence": "RRIRIRPPRLPRPRPRPSKEPRP", "shrunken log2 fold change": -0.202}, {"sequence": "RRIRIRPPRLPRPRPRPSKGPRP", "shrunken log2 fold change": -0.142}, {"sequence": "RRIRIRPPRLPRPRPRPSKHPRP", "shrunken log2 fold change": -0.813}, {"sequence": "RRIRIRPPRLPRPRPRPSKPPRP", "shrunken log2 fold change": -0.189}, {"sequence": "RRIRIRPPRLPRPRPRPSLHPRP", "shrunken log2 fold change": -0.824}, {"sequence": "RRIRIRPPRLPRPRPRPSLRPRP", "shrunken log2 fold change": -0.72}, {"sequence": "RRIRIRPPRLPRPRPRPSMEPRP", "shrunken log2 fold change": -0.343}, {"sequence": "RRIRIRPPRLPRPRPRPSMFPRP", "shrunken log2 fold change": -0.801}, {"sequence": "RRIRIRPPRLPRPRPRPSNNPRP", "shrunken log2 fold change": -0.656}, {"sequence": "RRIRIRPPRLPRPRPRPSQMPRP", "shrunken log2 fold change": -0.0716}, {"sequence": "RRIRIRPPRLPRPRPRPSQYPRP", "shrunken log2 fold change": -0.555}, {"sequence": "RRIRIRPPRLPRPRPRPSRFPRP", "shrunken log2 fold change": -0.278}, {"sequence": "RRIRIRPPRLPRPRPRPSRHPRP", "shrunken log2 fold change": -0.384}, {"sequence": "RRIRIRPPRLPRPRPRPSVYPRP", "shrunken log2 fold change": -0.277}, {"sequence": "RRIRIRPPRLPRPRPRPSWAPRP", "shrunken log2 fold change": -0.0867}, {"sequence": "RRIRIRPPRLPRPRPRPSWIPRP", "shrunken log2 fold change": -0.411}, {"sequence": "RRIRIRPPRLPRPRPRPSWKPRP", "shrunken log2 fold change": -0.242}, {"sequence": "RRIRIRPPRLPRPRPRPSWRPRP", "shrunken log2 fold change": 0.144}, {"sequence": "RRIRIRPPRLPRPRPRPSYGPRP", "shrunken log2 fold change": -0.53}, {"sequence": "RRIRIRPPRLPRPRPRPSYYPRP", "shrunken log2 fold change": -1.34}, {"sequence": "RRIRIRPPRLPRPRPRPTARPRP", "shrunken log2 fold change": 0.0575}, {"sequence": "RRIRIRPPRLPRPRPRPTCNPRP", "shrunken log2 fold change": -0.313}, {"sequence": "RRIRIRPPRLPRPRPRPTDEPRP", "shrunken log2 fold change": 0.125}, {"sequence": "RRIRIRPPRLPRPRPRPTDHPRP", "shrunken log2 fold change": -0.368}, {"sequence": "RRIRIRPPRLPRPRPRPTFPPRP", "shrunken log2 fold change": -0.316}, {"sequence": "RRIRIRPPRLPRPRPRPTGIPRP", "shrunken log2 fold change": -0.0849}, {"sequence": "RRIRIRPPRLPRPRPRPTICPRP", "shrunken log2 fold change": -0.191}, {"sequence": "RRIRIRPPRLPRPRPRPTIMPRP", "shrunken log2 fold change": -0.745}, {"sequence": "RRIRIRPPRLPRPRPRPTKNPRP", "shrunken log2 fold change": -0.355}, {"sequence": "RRIRIRPPRLPRPRPRPTKRPRP", "shrunken log2 fold change": -0.0508}, {"sequence": "RRIRIRPPRLPRPRPRPTNRPRP", "shrunken log2 fold change": -0.326}, {"sequence": "RRIRIRPPRLPRPRPRPTPYPRP", "shrunken log2 fold change": -0.44}, {"sequence": "RRIRIRPPRLPRPRPRPTQMPRP", "shrunken log2 fold change": 0.565}, {"sequence": "RRIRIRPPRLPRPRPRPTQTPRP", "shrunken log2 fold change": 0.0595}, {"sequence": "RRIRIRPPRLPRPRPRPTRPPRP", "shrunken log2 fold change": 0.763}, {"sequence": "RRIRIRPPRLPRPRPRPTSAPRP", "shrunken log2 fold change": 0.065}, {"sequence": "RRIRIRPPRLPRPRPRPTSQPRP", "shrunken log2 fold change": -0.283}, {"sequence": "RRIRIRPPRLPRPRPRPTSTPRP", "shrunken log2 fold change": -0.0986}, {"sequence": "RRIRIRPPRLPRPRPRPTWAPRP", "shrunken log2 fold change": 0.0207}, {"sequence": "RRIRIRPPRLPRPRPRPTWDPRP", "shrunken log2 fold change": 0.372}, {"sequence": "RRIRIRPPRLPRPRPRPTWGPRP", "shrunken log2 fold change": 0.0223}, {"sequence": "RRIRIRPPRLPRPRPRPTWRPRP", "shrunken log2 fold change": 0.274}, {"sequence": "RRIRIRPPRLPRPRPRPTYVPRP", "shrunken log2 fold change": -0.0344}, {"sequence": "RRIRIRPPRLPRPRPRPVAMPRP", "shrunken log2 fold change": -0.0657}, {"sequence": "RRIRIRPPRLPRPRPRPVCQPRP", "shrunken log2 fold change": -0.202}, {"sequence": "RRIRIRPPRLPRPRPRPVCYPRP", "shrunken log2 fold change": -0.633}, {"sequence": "RRIRIRPPRLPRPRPRPVEAPRP", "shrunken log2 fold change": -0.205}, {"sequence": "RRIRIRPPRLPRPRPRPVEQPRP", "shrunken log2 fold change": 0.107}, {"sequence": "RRIRIRPPRLPRPRPRPVFRPRP", "shrunken log2 fold change": -0.169}, {"sequence": "RRIRIRPPRLPRPRPRPVFTPRP", "shrunken log2 fold change": -0.305}, {"sequence": "RRIRIRPPRLPRPRPRPVGEPRP", "shrunken log2 fold change": -0.0964}, {"sequence": "RRIRIRPPRLPRPRPRPVIHPRP", "shrunken log2 fold change": -0.248}, {"sequence": "RRIRIRPPRLPRPRPRPVINPRP", "shrunken log2 fold change": -0.198}, {"sequence": "RRIRIRPPRLPRPRPRPVIQPRP", "shrunken log2 fold change": -1.44}, {"sequence": "RRIRIRPPRLPRPRPRPVLFPRP", "shrunken log2 fold change": -0.357}, {"sequence": "RRIRIRPPRLPRPRPRPVLIPRP", "shrunken log2 fold change": -0.469}, {"sequence": "RRIRIRPPRLPRPRPRPVLSPRP", "shrunken log2 fold change": -0.311}, {"sequence": "RRIRIRPPRLPRPRPRPVMLPRP", "shrunken log2 fold change": -0.776}, {"sequence": "RRIRIRPPRLPRPRPRPVNAPRP", "shrunken log2 fold change": -0.113}, {"sequence": "RRIRIRPPRLPRPRPRPVNKPRP", "shrunken log2 fold change": -0.426}, {"sequence": "RRIRIRPPRLPRPRPRPVPKPRP", "shrunken log2 fold change": 0.0597}, {"sequence": "RRIRIRPPRLPRPRPRPVQEPRP", "shrunken log2 fold change": 0.00511}, {"sequence": "RRIRIRPPRLPRPRPRPVRAPRP", "shrunken log2 fold change": 0.172}, {"sequence": "RRIRIRPPRLPRPRPRPVRCPRP", "shrunken log2 fold change": 0.201}, {"sequence": "RRIRIRPPRLPRPRPRPVRIPRP", "shrunken log2 fold change": 0.154}, {"sequence": "RRIRIRPPRLPRPRPRPVSQPRP", "shrunken log2 fold change": -0.0669}, {"sequence": "RRIRIRPPRLPRPRPRPVVMPRP", "shrunken log2 fold change": -0.0043}, {"sequence": "RRIRIRPPRLPRPRPRPVVSPRP", "shrunken log2 fold change": -0.503}, {"sequence": "RRIRIRPPRLPRPRPRPWCTPRP", "shrunken log2 fold change": -0.757}, {"sequence": "RRIRIRPPRLPRPRPRPWDPPRP", "shrunken log2 fold change": -0.0252}, {"sequence": "RRIRIRPPRLPRPRPRPWIAPRP", "shrunken log2 fold change": -0.717}]}]}
